From PMC7202667, “UNBRANCHED3 Expression and Inflorescence Development is Mediated by UNBRANCHED2 and the Distal Enhancer, KRN4, in Maize”

What was measured:
[1] = target: T1, OBF4, MBP fusion (Zea mays, UniProt B4FFB3 1-396); test: EMSA; poly(dI-dC), 5 mM MgCl2; EMSA: 10 mM Tris pH 7.5, 50 mM KCl, 1 mM DTT, 5 mM MgCl2, 2.5% glycerol, poly(dI-dC), 0.05% NP-40; 20-40 ng protein, probe 10 fM (so in the source); room temperature; conditions: protein: recombinant; tags: N-MBP (pMAL-c2x); chain copies: 2; label: 5'-biotin; blunt
T1 sequence: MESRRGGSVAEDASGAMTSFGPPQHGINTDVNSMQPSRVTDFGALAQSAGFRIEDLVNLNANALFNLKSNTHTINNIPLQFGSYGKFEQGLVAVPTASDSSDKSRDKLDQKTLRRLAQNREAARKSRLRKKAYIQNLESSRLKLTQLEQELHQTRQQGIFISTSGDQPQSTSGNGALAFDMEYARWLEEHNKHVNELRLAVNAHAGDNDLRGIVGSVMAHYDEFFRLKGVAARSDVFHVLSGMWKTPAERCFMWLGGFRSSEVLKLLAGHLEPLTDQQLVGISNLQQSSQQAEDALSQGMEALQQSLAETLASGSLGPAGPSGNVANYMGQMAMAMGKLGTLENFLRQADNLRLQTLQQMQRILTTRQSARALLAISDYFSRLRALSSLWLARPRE

[2] = target: T2, OBF1, MBP fusion (Zea mays, UniProt P24068 1-151); test: as above; conditions: protein: recombinant; tags: N-MBP (pMAL-c2x); chain copies: 2; label: 5'-biotin; blunt
T2 sequence: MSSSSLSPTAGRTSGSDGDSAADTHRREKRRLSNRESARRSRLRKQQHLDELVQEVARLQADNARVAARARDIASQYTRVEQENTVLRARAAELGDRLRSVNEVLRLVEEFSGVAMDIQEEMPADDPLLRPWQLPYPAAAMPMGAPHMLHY

B1: 3xE1 probe (3E1X) (dsDNA)
DNA 1: ACATGGCACGACACGTAGTGAACCACATGGCACGACACGTAGTGAACCACATGGCACGACACGTAGTGAACC
DNA 2: GGTTCACTACGTGTCGTGCCATGTGGTTCACTACGTGTCGTGCCATGTGGTTCACTACGTGTCGTGCCATGT
- binding result [1]: binds
- binding result [2]: binds
